These results are taken from article PMC2768378 (2009).

The assay concerns the target H2A.Z-H2B (Saccharomyces cerevisiae, UniProt Q12692). The assay can be described thus: relaxation dispersion NMR.

B1: Chz1 (protein)
chain: SDEAKEKRELESQKESSHNKSEKSVEPKPKRRRRRNYDDYDAEVAKEETKAKNGLTKSENNGTVEDSESDMDDAKLDALMGNEGEEEEDDLAEIDTSNIITSGRRTRGKVIDYKKTAEELDKKEPSTGSKDDVGYGEKEEDDEDEEDDDFKE
On to B1, for which the Kd (in general, the concentration at which binding is half-saturated) was roughly 200 nM.
